Measured values from the supplement of paper PMC9170038.

Tested on: MS2 coat protein
Test: apparent KD of MS2 coat protein; designed switch direction (-1 OFF switch, 1 ON switch): -1; higher = weaker reporter binding
Method in brief: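 Apparent KD, taken as the median over clusters for each design, was obtained by curve-fitting normalised cluster fluorescence. Designed RNA switches had been transcribed on Illumina chips by stalled E. coli RNA polymerase and titrated with SNAP-549-labelled MS2 coat protein, doubling from 0.7 or 1.5 nM to 3 µM.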

[1] = Eterna round: R95, input ligand: microRNA oligo, concentration not stated
[2] = input ligand: microRNA oligo, concentration not stated
[3] = Eterna round: R95, input ligand: FMN 200 uM
[4] = Eterna round: R95, input ligand: none

GUUAAGGUAGGAUAUACGAUAAUAUAGGGUAGAUAUAUAACACAUGAGGAUCACCCAUGUAGAAGGACCAAUUG [Mat - Exclusion 2 - Mod of my Tesla design - D53] (puzzle: Exclusion 2)
apparent KD of MS2 coat protein [1]: 28.5 nM

GUUACACAUGAGGAUCACCCAUGUGAGGAUAUGGAUUCGUUAGAAGUAGAAGAUGGAUCCAGAAGGCGCGUGAG [JR_Ex1_Sub079] (Eterna round: R97, puzzle: Exclusion 1)
apparent KD of MS2 coat protein (input ligand: FMN 200 uM): 160 nM
apparent KD of MS2 coat protein (input ligand: none): 62.7 nM

GUUAUGCAGCAGGAUAUCGAUCCGCGGUAUGAUCGAGAAGGGCUGACAUGAGGAUCACCCAUGUGCGUCCUAGG [jl-ex6-4.46 ViennaUCT mod] (Eterna round: R97, puzzle: Exclusion 6)
apparent KD of MS2 coat protein (input ligand: FMN 200 uM): 170 nM
apparent KD of MS2 coat protein (input ligand: none): 36.6 nM

GUUGAUGUAGGAUAUACAUGAGGAUCACCCAUGUUGGUGCCCUAACCUAUUGGUGUACGUAGAAGGGCGGACUC [Eternabot (L2) Solution 96] (Eterna round: R97, puzzle: Exclusion 3)
apparent KD of MS2 coat protein (input ligand: FMN 200 uM): 103 nM
apparent KD of MS2 coat protein (input ligand: none): 95.2 nM

GUUGGUAAGUCAGGAUAUCCCUGUAAUGGCAGCGGAGAAGGGACAUGAGGAUCACCCAUGUGAACCUCCGGCGGAUAAACCCGC [Ancelave] (Eterna round: R96, puzzle: Exclusion NG 1)
apparent KD of MS2 coat protein (input ligand: FMN 200 uM): 111 nM
apparent KD of MS2 coat protein [2]: 29.5 nM
apparent KD of MS2 coat protein (input ligand: none): 23.6 nM

GUUGUUUAUGUAGGAUAUGCAAGGCGAACCUAAGCAGAAGGACAUGAGGAUCACCCAUGUAUUGCGGUCUGCGUUCAGAUCGCU [salish99_ExNG1_r4_014] (Eterna round: R96, puzzle: Exclusion NG 1)
apparent KD of MS2 coat protein (input ligand: FMN 200 uM): 56.8 nM
apparent KD of MS2 coat protein [2]: 16.3 nM
apparent KD of MS2 coat protein (input ligand: none): 20.1 nM

GUUUGACAUGAGGAUCACCCAUGUAAGGAUAUACGAGUAGAUGAUAGAUAGAUAGUAUGUAGAAGGUACGUGUU [EX1 #61] (Eterna round: R97, puzzle: Exclusion 1)
apparent KD of MS2 coat protein (input ligand: FMN 200 uM): 74.3 nM
apparent KD of MS2 coat protein (input ligand: none): 92.8 nM

GUUUGCGCAGGAUAUACAUGAGGAUCACCCAUGUGAGAGAAAUAAGUGAGGAAGAAAAGUAGAAGGGCGUGACG [Mat - Exclusion 3 - Mod of Salish D71] (puzzle: Exclusion 3)
apparent KD of MS2 coat protein [3]: 171 nM
apparent KD of MS2 coat protein [1]: 34 nM
apparent KD of MS2 coat protein [4]: 42.8 nM

GUUUUAUAUGAAGGAUAUACUUAACAUGAGGAUCACCCAUGUGGUGUUGUGAGUGAGUGAGUUUAGUAGAAGGUCAAUUCUUUU [JMF's solution 99] (Eterna round: R96, puzzle: Exclusion NG 2)
apparent KD of MS2 coat protein (input ligand: FMN 200 uM): 622 nM
apparent KD of MS2 coat protein [2]: 593 nM
apparent KD of MS2 coat protein (input ligand: none): 408 nM

GUUUUCAGACGGAGAUCCUACAUGAGGAUCACCCAUGUCUCUCAAGCUAAUUGCUCGUCUUAUUCUCCUCUGUUCUC [Elimod 39 - Jieux - Sensor, turn-off variant 1] (Eterna round: R97, puzzle: Sensor, turn-off variant 1)
apparent KD of MS2 coat protein (input ligand: FMN 200 uM): 35.6 nM
apparent KD of MS2 coat protein (input ligand: none): 41 nM

GUUUUCAGACGGAGAUCCUACAUGAGGAUCACCCAUGUCUCUCUAGCUAAUUGCUCGUCUUAUUCUCCUCUGUUCUC [Elimod 38 - Jieux - Sensor, turn-off variant 1] (Eterna round: R97, puzzle: Sensor, turn-off variant 1)
apparent KD of MS2 coat protein (input ligand: FMN 200 uM): 40 nM
apparent KD of MS2 coat protein (input ligand: none): 47.5 nM

UAAAACCUAGGAUAUACAUGAGGAUCACCCAUGUUCGAAGGAGCCCAAGUGACUUCUAGUAGAAGGAGGGCGAA [Aratisedso] (puzzle: Exclusion 3)
apparent KD of MS2 coat protein [1]: 18.8 nM

UAAAAGCUAGGAUAUAGAGACAGAAACUUGAGGAUCACCCAAGUGAGUCAAGCUAUGUCGCUAGAAGGAGCGAAAA [Qubetizaa] (Eterna round: R97, puzzle: Exclusion 5)
apparent KD of MS2 coat protein (input ligand: FMN 200 uM): 278 nM
apparent KD of MS2 coat protein (input ligand: none): 32 nM

UAAAAGUGAGGAUAUACAUUAAGGUAAGUCCGGAUGCGAAGACAUGAGGAUCACCCAUGUAGAAGGCACACAAA [Aredge] (puzzle: Exclusion 2)
apparent KD of MS2 coat protein [1]: 32.1 nM

UAAACAAGCUAAAGAUCCUACAUGAGGAUCACCCAUGUGCUCGUCUUGUAACGUACUGUGACGAAAGUCACGGUACG [JL TOV1 3.10] (Eterna round: R97, puzzle: Sensor, turn-off variant 1)
apparent KD of MS2 coat protein (input ligand: FMN 200 uM): 194 nM
apparent KD of MS2 coat protein (input ligand: none): 202 nM

UAAAUUAUUGUAAGGAUAUCAGUCCCGAAAGGGACUGAGAAGGUACAUGAGGAUCACCCAUGUGAAAUAAGAAU [Mod of Zala 15 - Jieux - Brourd's Mod of Exclusion 4] (Eterna round: R97, puzzle: Brourd's mod of Exclusion 4)
apparent KD of MS2 coat protein (input ligand: FMN 200 uM): 53.1 nM
apparent KD of MS2 coat protein (input ligand: none): 22.1 nM

UAAAUUGCAAGCAGAUCCUACAUGAGGAUCACCCAUGUGCUCUGAAAUAACGCAGAAUUACUGCGAGCUCGUCUUAU [Winner reversed engineered 26] (Eterna round: R97, puzzle: Sensor, turn-off variant 1)
apparent KD of MS2 coat protein (input ligand: FMN 200 uM): 80.9 nM
apparent KD of MS2 coat protein (input ligand: none): 94.3 nM

UAAAUUGGGUAGGAUAUGUUUGUUUAAAGAGCCACAGAAGGACCCACAUGAGGAUCACCCAUGUAUCACCUAUG [Eternabot (L2) Solution 60] (Eterna round: R97, puzzle: Exclusion 6)
apparent KD of MS2 coat protein (input ligand: FMN 200 uM): 33.6 nM
apparent KD of MS2 coat protein (input ligand: none): 27.1 nM

UAACCACAUGAGGAUCACCCAUGUGAGGAUAUGUCCAUAUUCGGCAAAUCGGAUAUGGACAGAAGGCACACCGG [JR_Exclusion1_Sub010] (puzzle: Exclusion 1)
apparent KD of MS2 coat protein [1]: 40.7 nM

UAACUUCUUGUAAGGAUAUUGGCGCGAAAGCGCACCGAGAAGGUACAUGAGGAUCACCCAUGUGAAAUAAGAAU [Mod of Zala 13 - Jieux - Brourd's Mod of Exclusion 4] (Eterna round: R97, puzzle: Brourd's mod of Exclusion 4)
apparent KD of MS2 coat protein (input ligand: FMN 200 uM): 47.5 nM
apparent KD of MS2 coat protein (input ligand: none): 27.2 nM

UAAGAGUGAGGAUAUACGUCGCUGGUCCGGAUGGACGCAUGACAUGAGGAUCACCCAUGUAGAAGGCACAAAAC [Enxela] (puzzle: Exclusion 2)
apparent KD of MS2 coat protein [1]: 26.8 nM

UAAGAUUACCGAGGAUAUGGUAAUUUUUGUUAACCAGAAGGCGGACUCAACAUGAGGAUCACCCAUGUAUAAAGGGUAUUAGUU [JR_ExcNG1_Sub040] (Eterna round: R96, puzzle: Exclusion NG 1)
apparent KD of MS2 coat protein (input ligand: FMN 200 uM): 100 nM
apparent KD of MS2 coat protein [2]: 74.2 nM
apparent KD of MS2 coat protein (input ligand: none): 96.4 nM

UAAGCUACUGUCAGGAUAUCGUAAUUGGUGAACGACGAGAAGGGACAUGAGGAUCACCCAUGUCGAUGACUGGG [Eternabot (L2) Solution 97] (Eterna round: R97, puzzle: Brourd's mod of Exclusion 4)
apparent KD of MS2 coat protein (input ligand: FMN 200 uM): 386 nM
apparent KD of MS2 coat protein (input ligand: none): 200 nM

UAAGUGUCAGGAUAUACAUGAGGAUCACCCAUGUGCCUCGCUACGGCCAGGCUCCCGUGUAGAAGGGAUCGUAA [Eternabot (Original) Solution 23] (Eterna round: R97, puzzle: Exclusion 3)
apparent KD of MS2 coat protein (input ligand: FMN 200 uM): 110 nM
apparent KD of MS2 coat protein (input ligand: none): 61.8 nM

UAAUAAAGUGUGAGGAUAUGCUGGUCGAUAGAUCAGCAGAAGGCACAUGAGGAUCACCCAUGUAAUAUAUUUUA [Mat - Exclusion 4 - JL Mod - D46] (Eterna round: R96, puzzle: Brourd's mod of Exclusion 4)
apparent KD of MS2 coat protein (input ligand: FMN 200 uM): 238 nM
apparent KD of MS2 coat protein [2]: 40.6 nM
apparent KD of MS2 coat protein (input ligand: none): 56.1 nM

UAAUAAAGUGUGAGGAUAUGCUGGUCGAUAGAUCAGCAGAAGGCACAUGAGGAUCACCCAUGUAAUAUAUUUUA [Mat - Exclusion 4 - JL Mod - D46] (puzzle: Brourd's mod of Exclusion 4)
apparent KD of MS2 coat protein [1]: 54.3 nM

UAAUAUCUGCAGGAUAUCGGUGUAGCACGCGUAUGAGAAGGGCAGACAUGAGGAUCACCCAUGUAUUAUAUCCG [Eternabot (L2) Solution 39] (Eterna round: R97, puzzle: Exclusion 6)
apparent KD of MS2 coat protein (input ligand: FMN 200 uM): 34.8 nM
apparent KD of MS2 coat protein (input ligand: none): 24.5 nM

UAAUGCAAGUAAAGAUCCUACAUGAGGAUCACCCAUGUGCUCGUCUUAUAAAGUACUAUCACGAAAGUGAUAGUACA [Mat - Sensor v3 - turn-off var 1 - Eli Mod - D83] (puzzle: Sensor v3, turn-off variant 1)
apparent KD of MS2 coat protein [3]: 385 nM
apparent KD of MS2 coat protein [1]: 31.8 nM
apparent KD of MS2 coat protein [4]: 167 nM

UAAUUGUGAGGAUAUCUGGCUUCGAUCGUGAGAUCGAGGCUAGAGAAGGCACAUGAGGAUCACCCAUGUUCCUU [jl-ex4-4.10 salish99 mod] (Eterna round: R97, puzzle: Exclusion 4)
apparent KD of MS2 coat protein (input ligand: FMN 200 uM): 85.2 nM
apparent KD of MS2 coat protein (input ligand: none): 21.5 nM

UAAUUUUUAGUAAGGAUAUCGGUCCCAAGGGACAACGAGAAGGUACAUGAGGAUCACCCAUGUGAUAAAAGAAU [Mod of Zala 5 - Jieux - Brourd's Mod of Exclusion 4] (Eterna round: R97, puzzle: Brourd's mod of Exclusion 4)
apparent KD of MS2 coat protein (input ligand: FMN 200 uM): 204 nM
apparent KD of MS2 coat protein (input ligand: none): 28.8 nM
